Reference: patent US7582437 (JAPAN SCIENCE AND TECHNOLOGY AGENCY, dated 2009)

Legend:
human TLR3 [1] = molecular target: T1, human TLR3 (human, UniProt O15455 24-904); assay: stated in the description with reference to the Examples (reporter gene assays)
T1 construct: whole, on cells; also called human Toll-like receptor 3

human TLR3 [2] = molecular target: T1, human TLR3; assay: stated in the description with reference to the Examples (dominant-negative effect in reporter gene assays)
Method: By using the gene transfecting cationic lipid "Lipfectamine 2000" reagent (made by Gibco), HEK293 cells in 24-well plates were transfected with (i) 0.1 µg of luciferase-linked NF-κB reporter gene (made by Stratagene) (c.f. FIG. 13(b)) or 0.1 µg of p125.luc reporter plasmid (c.f. FIG. 13(a)), (ii) TICAM-1 TIR (0.1 ng and 10 ng) or a plasmid (0, 0.2 µg, 0.6 µg), the plasmid encoding TICAM-1 TIR mutant TIR P434H of TICAM-1 TIR, and (iii) empty vector, TLR2 (0.1 µg), or TLR3 (0.6 µg).
A total amount (0.8 µg to 1.0 µg) of transfected DNA was adjusted by adding the empty vectors. Moreover, plasmid vector pCMVβ (made by Clontech; 5 ng) was used as an internal control.
Twenty four hours after the transfection, the cells were stimulated for 6 hours with 100 nM of MALP-2 (TLR2 stimulation) or 10 µg/ml of poly (I:C) (TLR3 stimulation), and then lyzed with the lysis buffer (made by Promega). Luciferase activity that indicate the interferon β activation or NF-κB activation caused by stimulation after the transfection in thus prepared lysates were measured according to the manufacturer's instructions. This experiment was repeated three times. Representing values thereof were considered as measurement values. Level of the interferon β activation is illustrated in FIG. 13(a), and level of the NF-κB activation is illustrated in FIG. 13(b).

binding result (human TLR3 [1])	binding result (human TLR3 [2])	Binder
binds	–	human TICAM-1 TIR (mutant made of almost only the TIR domain, amino acids 387 to 556 of human TICAM-1) (other, Expressed in HEK293 cells from pEFBOS; also called TIR of TICAM-1; pEFBOS-TICAM-1 (TIR)) ESSSEQKFYNFVILHARADEHIALRVREKLEALGVPDGATFCEDFQVPGRGELSCLQDAIDHSAFIILLLTSNFDCRLSLHQVNQAMMSNLTRQGSPDCVIPFLPLESSPAQLSSDTASLLSGLVRLDEHSQIFARKVANTFKPHRLQARKAMWRKEQDTRALREQSQHL
–	binds	dominant-negative mutant P434H of human TICAM-1 TIR (other, Expressed in HEK293 cells from pEFBOS with an initiator Met; also called TIR P434H) ESSSEQKFYNFVILHARADEHIALRVREKLEALGVPDGATFCEDFQVHGRGELSCLQDAIDHSAFIILLLTSNFDCRLSLHQVNQAMMSNLTRQGSPDCVIPFLPLESSPAQLSSDTASLLSGLVRLDEHSQIFARKVANTFKPHRLQARKAMWRKEQDTRALREQSQHL
